Test results: publication PMC10488932

Assays:
[1] = target: Sm-like protein from Sulfolobus acidocaldarius (SacSm) (Sulfolobus acidocaldarius); assay: dynamic light scattering; particle size under native conditions, Zetasizer Nano ZSP, 25 °C, detection angle 173°
[2] = target: hybrid chaperone protein ADGroEL–SacSm (Escherichia coli | Sulfolobus acidocaldarius); assay: as above

stoichiometry N [1] | stoichiometry N [2] | Substance
7 |  | Sm-like protein from Sulfolobus acidocaldarius (SacSm) (natural protein)
 | 7 | hybrid chaperone protein ADGroEL–SacSm
